PMC4403447

Experiments:
[1] = biological target: Sti1 G193C–G309C N435A, labelled with ATTO 532 and ATTO 647 (S. cerevisiae) (UniProt P15705)
[2] = biological target: Sti1 G193C–G309C, labelled with ATTO 532 and ATTO 647 (S. cerevisiae) (UniProt P15705)
[3] = biological target: Sti1 G193C–G309C N39A, labelled with ATTO 532 and ATTO 647 (S. cerevisiae) (UniProt P15705)
Sti1 G193C–G309C N39A, labelled with ATTO 532 and ATTO 647 (S. cerevisiae), sequence (P15705 whole entry N39A/G193C/G309C): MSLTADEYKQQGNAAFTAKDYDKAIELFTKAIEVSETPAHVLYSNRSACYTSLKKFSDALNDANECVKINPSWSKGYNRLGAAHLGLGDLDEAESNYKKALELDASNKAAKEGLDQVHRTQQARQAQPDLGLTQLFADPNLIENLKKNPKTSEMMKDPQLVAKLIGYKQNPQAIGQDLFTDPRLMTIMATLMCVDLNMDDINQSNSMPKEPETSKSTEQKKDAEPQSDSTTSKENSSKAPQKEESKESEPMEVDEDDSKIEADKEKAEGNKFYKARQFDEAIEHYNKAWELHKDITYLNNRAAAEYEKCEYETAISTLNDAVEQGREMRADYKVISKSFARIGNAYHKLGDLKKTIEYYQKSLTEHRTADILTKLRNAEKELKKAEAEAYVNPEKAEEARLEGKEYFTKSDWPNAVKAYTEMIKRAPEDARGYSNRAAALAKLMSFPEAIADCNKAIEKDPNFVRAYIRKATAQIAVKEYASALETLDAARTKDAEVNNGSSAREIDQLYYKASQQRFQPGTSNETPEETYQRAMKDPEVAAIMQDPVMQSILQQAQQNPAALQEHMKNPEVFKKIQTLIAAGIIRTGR

yHsp70 (Ssa1), P10591 1-642 (natural protein; ATTO 532 and ATTO 647 on the two cysteines (labelled stochastically)), sequence (P10591 whole entry): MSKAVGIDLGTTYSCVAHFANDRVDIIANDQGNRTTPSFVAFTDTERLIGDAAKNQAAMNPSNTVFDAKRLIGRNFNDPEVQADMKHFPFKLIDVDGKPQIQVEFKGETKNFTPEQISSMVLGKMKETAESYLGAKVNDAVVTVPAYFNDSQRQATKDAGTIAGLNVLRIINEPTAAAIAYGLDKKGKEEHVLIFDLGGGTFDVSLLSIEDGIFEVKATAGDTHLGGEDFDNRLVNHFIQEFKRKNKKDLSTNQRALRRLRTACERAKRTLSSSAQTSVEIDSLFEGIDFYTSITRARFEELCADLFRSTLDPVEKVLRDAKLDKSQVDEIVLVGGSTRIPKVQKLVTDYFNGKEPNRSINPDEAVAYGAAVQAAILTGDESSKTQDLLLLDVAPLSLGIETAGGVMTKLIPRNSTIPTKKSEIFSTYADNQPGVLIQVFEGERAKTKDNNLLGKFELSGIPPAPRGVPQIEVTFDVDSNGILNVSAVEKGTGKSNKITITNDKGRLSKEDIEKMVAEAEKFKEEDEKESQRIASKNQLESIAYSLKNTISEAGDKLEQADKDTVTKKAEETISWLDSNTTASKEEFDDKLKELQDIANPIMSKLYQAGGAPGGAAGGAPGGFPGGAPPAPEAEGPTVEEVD
Sti1 G193C–G309C, labelled with ATTO 532 and ATTO 647 (S. cerevisiae), sequence (P15705 whole entry G193C/G309C): as the sequence (P15705 whole entry N39A/G193C/G309C) above, with A39N counted along it
Sti1 G193C–G309C N435A, labelled with ATTO 532 and ATTO 647 (S. cerevisiae), sequence (P15705 whole entry G193C/G309C/N435A): as the sequence (P15705 whole entry N39A/G193C/G309C) above, with A39N, N435A counted along it

dynamic traces (%) in surface-based spFRET (TIRF) of Sti1 encapsulated in vesicles with 25 μM Hsp70; 17 without Hsp [1] | dynamic traces (%) in surface-based spFRET (TIRF) of Sti1 encapsulated in vesicles with 25 μM Hsp70; 17 without Hsp [2] | dynamic traces (%) in surface-based spFRET (TIRF) of Sti1 encapsulated in vesicles with 25 μM Hsp70; 13 without Hsp [3] | dynamic traces (%) in surface-based spFRET (TIRF) of Sti1 encapsulated in vesicles with 10 μM Hsp90; 17 without Hsp [1] | dynamic traces (%) in surface-based spFRET (TIRF) of Sti1 encapsulated in vesicles with 10 μM Hsp90; 17 without Hsp [2] | dynamic traces (%) in surface-based spFRET (TIRF) of Sti1 encapsulated in vesicles with 10 μM Hsp90; 13 without Hsp [3] | Substance
15% | 28% | 27% |  |  |  | yHsp70 (Ssa1), P10591 1-642 (natural protein; ATTO 532 and ATTO 647 on the two cysteines (labelled stochastically))
 |  |  | 26% | 31% | 27% | yHsp90 (Hsp82), P02829 1-709 (natural protein; ATTO 532 and ATTO 647 on the two cysteines (labelled stochastically))
